Patent publication US20260250388A1 (published 2026)

T1: KRAS G12V peptide on HLA-A*11:01 (human)
T1 peptide: VVGAVGVGK

T2: KRAS G12V peptide on HLA-A*11:01 (human)
T2 peptide: VVVGAVGVGK


Tests used:
[1] = molecular target: HLA-A*11:01 / KRAS G12V 9-mer peptide … complex (human); experiment: cell-based or functional assay
[2] = molecular target: HLA-A*11:01 / KRAS G12V 10-mer peptide … complex (human); experiment: cell-based or functional assay
[3] = molecular target: T1, KRAS G12V peptide on HLA-A*11:01; experiment: multimer staining
[4] = molecular target: T2, KRAS G12V peptide on HLA-A*11:01; experiment: killing
Source text: A lentiviral vector containing the TCR gene of the present invention was constructed and used to transduce T cells. The T cells transduced with different TCRs were co-cultured with: (1) HLA-A*11:01-expressing K562 cells loaded with different peptides (G12V-9 peptide: […] (SEQ ID NO: 91), G12V-10 peptide: […] (SEQ ID NO: 92), or WT peptide: […] (SEQ ID NO: 93)+[…] (SEQ ID NO: 94)); and (2) BxPC3 cells expressing HLA-A*11:01, co-expressing HLA-A*11:01 and KRAS G12V, or co-expressing HLA-A*11:01 and KRAS G12D (effector cell:target cell=5:1). After co-incubation for 16 h, the killing ability of T cells against target cells was evaluated by detecting LDH release. Statistical data are shown in FIGS. 2A and 2B (GraphPad Prism 8.0.1 software).

[5] = molecular target: T1, KRAS G12V peptide on HLA-A*11:01; experiment: CD69 by flow cytometry on TCR1-transduced Jurkat cells; K562-A*11:01 loaded with peptide at 10^-11 to 10^-6 M; FIG. 4C; full-length, on cells
Experimental: (§1) EC₅₀ values of different TCRs were assessed by spot numbers of IFN-γ release and CD69 expression after co-culture of specific TCR-transduced T cells with target cells loaded with graded concentrations of KRAS G12V-9 peptide ([…]) (SEQ ID NO: 91).

[6] = molecular target: T2, KRAS G12V peptide on HLA-A*11:01; experiment: as above
Experimental: as §1

Binder	binding result [3]	binding result [4]	also measured
TCR1 (TCR) TCR alpha: SLAKTTQPISMDSYEGQEVNITCSHNNIATNDYITWYQQFPSQGPRFIIQGYKTKVTNEVASLFIPADRKSSTLSLPRVSLSDTAVYYCLVGALSSSWYGQNFVFGPGTRLSVLPYIQNPDPAVYQLRDSKSSDKSVCLFTDFDSQTNVSQSKDSDVYITDKTVLDMRSMDFKSNSAVAWSNKSDFACANAFNNSIIPEDTFFPSPESSCDVKLVEKSFETDTNLNFQNLSVIGFRILLLKVAGFNLLMTLRLWSS TCR beta: DTAVSQTPKYLVTQMGNDKSIKCEQNLGHDTMYWYKQDSKKFLKIMFSYNNKELIINETVPNRFSPKSPDKAHLNLHINSLELGDSAVYFCASSQSGAQDGYTFGSGTRLTVVEDLNKVFPPEVAVFEPSEAEISHTQKATLVCLATGFFPDHVELSWWVNGKEVHSGVSTDPQPLKEQPALNDSRYCLSSRLRVSATFWQNPRNHFRCQVQFYGLSENDEWTQDRAKPVTQIVSAEAWGRADCGFTSVSYQQGVLSATILYEILLGKATLYAVLVSALVLMAMVKRKDF	–	–	EC50 of CD69 expression of TCR-transduced Jurkat cells after co-culture with K562-A*11:01 loaded with graded peptide concentrations (FIG. 4C) [1]: 2.24 nM; EC50 of CD69 expression of TCR-transduced Jurkat cells after co-culture with K562-A*11:01 loaded with graded peptide concentrations (FIG. 4C) [2]: 31.3 nM; fold difference of EC50 (CD69 expression) between the 10-mer and the 9-mer peptide [2]: 10 fold
TCR8 (TCR, V domains shown) Valpha: SQQGEEDPQALSIQEGENATMNCSYKTSINNLQWYRQNSGRGLVHLILIRSNEREKHSGRLRVTLDTSKKSSSLLITASRAADTASYFCATDAGGGADGLTFGKGTHLIIQP Vbeta: DSGVTQTPKHLITATGQRVTLRCSPRSGDLSVYWYQQSLDQGLQFLIQYYNGEERAKGNILERFSAQQFPDLHSELNLSSLELGDSALYFCASSESRDSGNTIYFGEGSWLTVV	recognises	recognises	–
TCR9 (TCR, V domains shown) Valpha: SQQGEEDPQALSIQEGENATMNCSYKTSINNLQWYRQNSGRGLVHLILIRSNEREKHSGRLRVTLDTSKKSSSLLITASRAADTASYFCATDSGGGADGLTFGKGTHLIIQP Vbeta: DSGVTQTPKHLITATGQRVTLRCSPRSGDLSVYWYQQSLDQGLQFLIQYYNGEERAKGNILERFSAQQFPDLHSELNLSSLELGDSALYFCASTPGRDSGNTIYFGEGSWLTVV	recognises	recognises	–
TCR1 (TCR, V domains shown) Valpha: LAKTTQPISMDSYEGQEVNITCSHNNIATNDYITWYQQFPSQGPRFIIQGYKTKVTNEVASLFIPADRKSSTLSLPRVSLSDTAVYYCLVGALSSSWYGQNFVFGPGTRLSVLP Vbeta: DTAVSQTPKYLVTQMGNDKSIKCEQNLGHDTMYWYKQDSKKFLKIMFSYNNKELIINETVPNRFSPKSPDKAHLNLHINSLELGDSAVYFCASSQSGAQDGYTFGSGTRLTVV	–	–	EC50 of peptide [5]: 2.24 nM; EC50 of peptide [6]: 31.3 nM
TCR2 (TCR, V domains shown) Valpha: DQQVKQNSPSLSVQEGRISILNCDYTNSMFDYFLWYKKYPAEGPTFLISISSIKDKNEDGRFTVFLNKSAKHLSLHIVPSQPGDSAVYFCAAKDNAGNMLTFGGGTRLMVKP Vbeta: KAGVTQTPRYLIKTRGQQVTLSCSPISGHRSVSWYQQTPGQGLQFLFEYFSETQRNKGNFPGRFSGRQFSNSRSEMNVSTLELGDSALYLCASSLGTAEAFFGQGTRLTVV	recognises	recognises	–
TCR7 (TCR, V domains shown) Valpha: DQQVKQNSPSLSVQEGRISILNCDYTNSMFDYFLWYKKYPAEGPTFLISISSIKDKNEDGRFTVFLNKSAKHLSLHIVPSQPGDSAVYFCAGKTNTGNQFYFGTGTSLTVIP Vbeta: KAGVTQTPRYLIKTRGQQVTLSCSPISGHRSVSWYQQTPGQGLQFLFEYFSETQRNKGNFPGRFSGRQFSNSRSEMNVSTLELGDSALYLCASSSGHPEAFFGQGTRLTVV	recognises	recognises	–
TCR6 (TCR, V domains shown) Valpha: AQSVTQPDIHITVSEGASLELRCNYSYGATPYLFWYVQSPGQGLQLLLKYFSGDTLVQGIKGFEAEFKRSQSSFNLRKPSVHWSDAAEYFCAVGASREYGNKLVFGAGTILRVKS Vbeta: NAGVMQNPRHLVRRRGQEARLRCSPMKGHSHVYWYRQLPEEGLKFMVYLQKENIIDESGMPKERFSAEFPKEGPSILRIQQVVRGDSAAYFCASSPGGLLHFGNGTRLTVT	recognises	recognises	–
TCR3 (TCR, V domains shown) Valpha: DQQVKQNSPSLSVQEGRISILNCDYTNSMFDYFLWYKKYPAEGPTFLISISSIKDKNEDGRFTVFLNKSAKHLSLHIVPSQPGDSAVYFCAANSGYALNFGKGTSLLVTP Vbeta: KAGVTQTPRYLIKTRGQQVTLSCSPISGHRSVSWYQQTPGQGLQFLFEYFSETQRNKGNFPGRFSGRQFSNSRSEMNVSTLELGDSALYLCASSLGGVGNEQFFGPGTRLTVL	recognises	recognises	–
TCR5 (TCR, V domains shown) Valpha: GEDVEQSLFLSVREGDSSVINCTYTDSSSTYLYWYKQEPGAGLQLLTYIFSNMDMKQDQRLTVLLNKKDKHLSLRIADTQTGDSAIYFCAESPGGGADGLTFGKGTHLIIQP Vbeta: GAVVSQHPSWVICKSGTSVKIECRSLDFQATTMFWYRQFPKQSLMLMATSNEGSKATYEQGVEKDKFLINHASLTLSTLTVTSAHPEDSSFYICSAPRGWAAGVYGYTFGSGTRLTVV	recognises	recognises	–
TCR4 (TCR, V domains shown) Valpha: QKEVEQNSGPLSVPEGAIASLNCTYSDRGSQSFFWYRQYSGKSPELIMFIYSNGDKEDGRFTAQLNKASQYVSLLIRDSQPSDSATYLCAVERGSTLGRLYFGRGTQLTVWP Vbeta: GAGVSQSPRYKVTKRGQDVTLRCDPISSHATLYWYQQALGQGPEFLTYFNYEAQPDKSGLPSDRFSAERPEGSISTLTIQRTEQRDSAMYRCASSLSSPTGGPINEQFFGPGTRLTVL	recognises	recognises	–
